Reference: article PMC6117352, “Multidomain architecture of estrogen receptor reveals interfacial cross-talk between its DNA-binding and ligand-binding domains” (Nature Communications, 2018)

Columns and labels:
[1] = molecular target: the molecule itself; assay: SEC-SAXS + hydroxyl radical protein footprinting, docked models scored against both data sets; hERα^CDE eluted from Superdex 200 with E2, ERE–DNA and TIF2 peptide; 10 mM CHES pH 9.5, 50 mM NaCl, 50 mM KCl; footprinting at 2 µM protein, pH 9.5
hERαCDE WT = hERαCDE WT (Homo sapiens, UniProt P03372 181-552); assay: fluorescence anisotropy; E2, TIF2 coactivator peptide; 20 nM DNA; apparent Kd; FA: 10 mM CHES pH 9.5, 50 mM KCl, 50 mM NaCl, 4 mM MgCl2, 50 mM arginine, 50 mM glutamic acid, 5 mM TCEP, 5% glycerol, 10 uM ZnCl2, 10 uM E2; 20 nM DNA, 10 min; temperature not stated; details: protein: recombinant; tags: His-tag (pMCSG7), removed by TEV; chain copies: 2; label: 5' 6-FAM (strands described as 5'-labeled); blunt, 19 bp as printed (text says 18-bp)
hERαCDE W393A = hERαCDE W393A (Homo sapiens, UniProt P03372 181-552, W393A); assay: fluorescence anisotropy; E2, TIF2 coactivator peptide; 20 nM DNA; FA: 10 mM CHES pH 9.5, 50 mM KCl, 50 mM NaCl, 4 mM MgCl2, 50 mM arginine, 50 mM glutamic acid, 5 mM TCEP, 5% glycerol, 10 uM ZnCl2, 10 uM E2; 20 nM DNA, 10 min; temperature not stated; details: protein: recombinant; tags: His-tag (pMCSG7), removed by TEV; chain copies: 2; label: 5' 6-FAM (strands described as 5'-labeled); blunt, 19 bp as printed (text says 18-bp)
Sequence of hERαCDE W393A (P03372 181-552 W393A): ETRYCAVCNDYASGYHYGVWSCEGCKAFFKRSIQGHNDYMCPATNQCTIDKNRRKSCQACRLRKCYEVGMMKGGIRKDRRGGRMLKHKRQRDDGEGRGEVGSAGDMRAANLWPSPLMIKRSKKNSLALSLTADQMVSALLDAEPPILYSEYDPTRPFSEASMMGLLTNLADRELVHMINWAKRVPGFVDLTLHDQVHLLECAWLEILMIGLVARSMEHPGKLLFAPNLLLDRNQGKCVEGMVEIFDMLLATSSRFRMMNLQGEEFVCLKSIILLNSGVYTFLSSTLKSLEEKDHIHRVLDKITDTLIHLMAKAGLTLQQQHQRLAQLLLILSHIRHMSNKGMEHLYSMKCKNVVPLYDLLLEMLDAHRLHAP

hERαCDE Y191H = hERαCDE Y191H (Homo sapiens, UniProt P03372 181-552, Y191H); assay: as above; details: protein: recombinant; tags: His-tag (pMCSG7), removed by TEV; chain copies: 2; label: 5' 6-FAM (strands described as 5'-labeled); blunt, 19 bp as printed (text says 18-bp)

B1: human estrogen receptor alpha multidomain segment containing both DBD and LBD (residues E181–P552), hERα^CDE (domain or fragment, UniProt P03372 181-552, looked up)
chain: ETRYCAVCNDYASGYHYGVWSCEGCKAFFKRSIQGHNDYMCPATNQCTIDKNRRKSCQACRLRKCYEVGMMKGGIRKDRRGGRMLKHKRQRDDGEGRGEVGSAGDMRAANLWPSPLMIKRSKKNSLALSLTADQMVSALLDAEPPILYSEYDPTRPFSEASMMGLLTNLADRELVHMINWAKRVPGFVDLTLHDQVHLLECAWLEILMIGLVWRSMEHPGKLLFAPNLLLDRNQGKCVEGMVEIFDMLLATSSRFRMMNLQGEEFVCLKSIILLNSGVYTFLSSTLKSLEEKDHIHRVLDKITDTLIHLMAKAGLTLQQQHQRLAQLLLILSHIRHMSNKGMEHLYSMKCKNVVPLYDLLLEMLDAHRLHAP
notes: Cloned into pMCSG7 and the His-tag removed with TEV protease; In the assays it carried estradiol (E2) and ERE-DNA; also called hERα^CDE–DNA-E2 complex; protein part of hERα^complex; source: E. coli Rosetta2(DE3)pLysS, expressed in the presence of estradiol, purified (TALON resin, TEV cleavage, Superdex 200)
Does B1 bind [1]?
Result: binds

B2: 6-FAM ERE-DNA (dsDNA)
DNA 1: TAGGTCACAGTGACCTGCG
DNA 2: CGCAGGTCACTGTGACCTA
Which results are given for B2?
Kd (hERαCDE WT): 9.2 nM; Kd (hERαCDE W393A): 10.8 nM; Kd (hERαCDE Y191H): 3.2 nM
